The nanobody polyreactivity screen of Harvey et al. (2022)

Experiment: yeast display, Sf9 membrane polyspecificity reagent, FACS + sequencing; frameworks hold sequencing errors
How it was run: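 Synthetic nanobody libraries on Saccharomyces cerevisiae BJ5465 were galactose-induced for 36–48 hours, stained 1 hour at 4 °C with 10% biotinylated, detergent-solubilized Sf9 membrane reagent and enriched on streptavidin microbeads. FACS then separated cells into low and high (top ~1%) gates by anti-HA (expression) and streptavidin (reagent binding) fluorescence. Genes were colony-PCR amplified, MiSeq 2 × 250 sequenced and CDR-length filtered. A clone's polyreactivity label is that of its gate of origin.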

QVQLVESGGGLVQAGGSLRLSCAASGIIFSSNAMGWYRQAPGKERELVAAISRSGGSTYYADSVKARFTISRDNAKKTVYLQMNSLKPEDTAVYDCAAVYRRGHEYDYWRQGTQVTVSS
polyreactivity (PSR sort gate): high polyreactivity

QVQLLESGGGLDQAGGILRLSCASSGRTFNWYAMGWYRQAPGKEREFVAAINWSGGSTYYADSVKGRFTISRDNAKNTVYLQMNSLKPEDTAVYYCNKYPVGYRMYYWGQGTQVTVSS
polyreactivity (PSR sort gate): low polyreactivity

QVQLVESGGGLVQAGGSLRLSCAASGIIFYYYAMGWYRQAPGKERELVAAIRSGGSTNYADSVKGRFTISRDNAKNTVYLQMNSLKPEDTAVYYCATRHDYLRAHYGYGSWGQGTQVTVSS
polyreactivity (PSR sort gate): low polyreactivity

QDHLVESGGGLVQAGGSLRLSCAPSGSIFSYNSMGWYRQAPGKERELVAGISSDGSTNYADSVKGRFSISRDNAKNTVYLQMNSLKPEDTAVYYCAADEIVWQADLWGYGIYDYWGHGTQVTVSS
polyreactivity (PSR sort gate): high polyreactivity

QVQLVESGGGLVQAGGSLRLSSAATGRTFPSNAMGWYRQAPGKERELVAAISVSSGRTYYADSVKGRFTISRDNAKNTVYLLMNSLKPEDTAVYYCAALWARYPYLFGFDYWGQGTQVTVSS
polyreactivity (PSR sort gate): high polyreactivity

QVQLVESGGGLVQAGGSLRLSCAASGRTFGIYAMGWYRQATGKERELVAGITWTGGSTYYADSVKGRFTISRDNAKNTVYLQMNSLKPEDTAVYYCAADFYVLQFYGLDYGYWGQGTQVTVSS
polyreactivity (PSR sort gate): low polyreactivity

QVQLVESGGGLVQAGGSLRLSCAASGRIFTRYAMGWYRQAPGKERELVATITKSGGSTYYADSVKGRFTISRDNAKNTVSLQMNSQKPDDTAVYYCAADSWWTYQYDYWGQGTQVTVSS
polyreactivity (PSR sort gate): low polyreactivity

QVQLVESGGGLVQAGGSLRLSCAASGRTFSNAMGWYRQAPGKERELVADISSGGSTNYADSVKGRFTISRDNAKNTVYLQMNSLKPEDTAVYYCAAVSGSLYGYSDDYWGQGTQVTVSS
polyreactivity (PSR sort gate): low polyreactivity

QVQLVESGGGLVQAGGSLRLSCAASGRTLSANAMGWYRQAPGKERELVATNSTRGGRTYYADSVKGRFTISRDNAKNTVYLQMNSLKPEDTAVYYCAVTIRAKYTLKEDYWGQGTQVTVSS
polyreactivity (PSR sort gate): low polyreactivity

QDQLVESGGGLVQAGGSLRLSCAASGSTFRHYAMGWYRQAPGKERELVAVISWGGTSTYYADSVKGRFTISRDNAKNTVYLQMNSLKPEDTAVYYCNKAYFPIFKGYEMYYWGQGTQVTVSS
polyreactivity (PSR sort gate): low polyreactivity

QVQLVESGRGLVQAGGSLRLSCGASGRTFGYYGMVGYRQATGKERELVASISRRGVSTYYADSVKGRFTISRDNAKNTVYLQMNSLKPEDTAVYYCAKDYWGYKYDYWGKGTQVTVSS
polyreactivity (PSR sort gate): high polyreactivity

QVQLVDSGGGLVQAGGSLRLSCAASGSTFYEYAMGWYRQPPGKERELVAAITSGGSTYYADSVKGRFTISRDNAKNTVYLQMNSLKPEDTAVYYCAADPRIRRGDRSTHGYDYWGQGTQVTVSS
polyreactivity (PSR sort gate): low polyreactivity

QVQLVESGGGLVQAGGSLRLSCAASGSTRYNAKGWYRQAPGNERELVASIRGNAGSTYYADSVKGRFTISRDNAKNTVYLQMNSLKPEDTAVYYCNARYWYRYGGYKPVGGYYWGQGTQVTVSS
polyreactivity (PSR sort gate): high polyreactivity

QVQLVESGGGLVQAGGSLRLSCAASGSTFGWYTMGWYRQAPGKERELVATISYGGGITNYADSVKGRFTMSRDNAKNTVDLQMNSLKPEDTAVYYWAVDNTGRSWPYDYWGQGTQVTVSS
polyreactivity (PSR sort gate): low polyreactivity

QVQLVESGGGLVQAGGSLRLSCAASGRTFRFYAMGWYRQAPGKERELVAAISSGGSTYYADSVKGRFTISRDNAKNTVYLQLNSLKAEDTAVYYCAVKQRDKFAGGRNDYWGQGTQVTVSS
polyreactivity (PSR sort gate): high polyreactivity

QVQLVESGGGLFQAGGSLRLSCAASGFIFLLNAMGWYRQAPGKERELVAAINSDGSTNYADSVKGRFTISRDNAKNTFYLQMNSLKPEDTGVYYCAARSFTLRGYDYWGQGTQVTVSS
polyreactivity (PSR sort gate): low polyreactivity

QVQLVESGGGLVQAGGSLRLSCAASGFIFSPNALGWYRPAPGKEREFVAAIRYSGTSTSYADSVKGRFTISRDNAKNTVYLQMNSLKPEDTAVYYCNAQWRFSRGYTYNYWGQGTQVTVSS
polyreactivity (PSR sort gate): high polyreactivity

QVQLVESGGGLVQAGGSLRLSCAASGSTFNWDAMGWYRQAPGQERELVAAISKSGGTTYYADSVKGRFTISRDNAKNTVYLQMNSLKPEDTAVYYCAAVRRYHSYPDGGYWGQGTQVTVSS
polyreactivity (PSR sort gate): high polyreactivity

QVQLVESGGGLVQAGGSLRLRCAASGNIFDDNAMGWYRQAPGKERELVAALTWTGGSTYYADSVKGRFTISRDNAKNTVYLQMNSLKAEYTAVYNCADYDYWGQGTQVTVSS
polyreactivity (PSR sort gate): low polyreactivity

QVQLVESGGGIVQAGGSLRLSCAASGRTFYPNGMGWYRQERGKERQLVAAITSGGRTNYADSVKGRFTISRDNAKNTVYLQMHSRKPEDTAVYYSNAVKRRSTSSGMDYWGQGTQVTVSS
polyreactivity (PSR sort gate): high polyreactivity

QVQLVESGGGLVQAGGSLRLSCAASGSIFSFYTMGWYRQAPGKERELVASSTTYADSVKGRFTISRDNAKNTVYLQMNSLKPEDTAVYYCAVDYNSLRYGPLGYWGQGTQVTVSS
polyreactivity (PSR sort gate): low polyreactivity

QVQLVESGGGLVQAGGSLRLSCAASGSTFWSYAMGWYRQAPGKERELVAAISYRGTRTRYADSVKGRFTISRDNAKNTVYLQMNSLKPEDTAVYYCAADRTFYGIRFDYWGQGTQVTVSS
polyreactivity (PSR sort gate): high polyreactivity

QVQLLESGGGLLQAGGSLRLSCAASGITLIGNAMGWYRQAPGKESELVAAISKSGGNTFYAVSVKGRFTISRDNAKNTVYLQMNSLKPEDTAVYYCAADGYYGYYSQYEYLYYYWGQGTQVTVSS
polyreactivity (PSR sort gate): high polyreactivity

QVQLVESGGGLVQAGGSLRLSCAASGRTFAYNTMGWYRQAPGKERELVAAISTSGVRTFYADSVKGRFTISRDNAKNTVYLQMNSLKPEDTAVYSYDWGQGTQVTVSS
polyreactivity (PSR sort gate): low polyreactivity

QVQLEESGGGLVQAGGSLRLSCAPSGYNYRKNVIGWYRQAPGKERELVAAISARGGSTYYADSVKGRFTISRDNAKNTVYLQMYSLKAEVTAVYFCNTDGYLYPYDSWGLGTQVTVSS
polyreactivity (PSR sort gate): high polyreactivity

QDQHVESAGGLVQAGGSLRLSCAASGRIFTINARGWYRQAPGKERELVAGISGRSGGTYYADSVKGRFTISRDNAKNTVYLEMNSLKPEDTAVYYCAGDDWYSTYFEFNYWGQGTQVTVSS
polyreactivity (PSR sort gate): low polyreactivity

QVQLVESGGGLVQAGGSLRLSCAASGSIFYIYAMGWYRQAPGKERELVAAITWRGGRTYYADSVKGRFTISRDNAKNTVYLQMNSLKPEDTAVYYCAALYAKYYYRYDYWGQGTQVTVSS
polyreactivity (PSR sort gate): high polyreactivity

QVQLVESGGGLVQAGGSLRLSCAASGSTFYFYAMGWYREAPGKERELVAAISKRGTSTYYADSVKGRFTISRDNAKNTVYLEMNSLKPEDTAVYFCAADAPRGYNYWGQGTQVTVSS
polyreactivity (PSR sort gate): high polyreactivity

QVQLVESGGGLVQAGGSLRLSCAASGRIFSSYAMGWYRQAPGKERELVAAISSRGGSTYYADSVKGRFTISRDNAKNTVYLQMNSLKPEDTAVNYCAKGLTALGDYWGQCTQVTVSS
polyreactivity (PSR sort gate): high polyreactivity

QVQLVESGGGLVQAGGSLRLSCAASGRIYPGYTMGWYRQAPGKERELVAGISRSGGRTYYADSVKGRFTISRDNAKNTVYLQMNSLKPEDTAVYYCAADGYPGRRYTGMDYWGQGTQVTVSS
polyreactivity (PSR sort gate): high polyreactivity

QVQLVESAGGLVQAGGSLRLSCAASGRIFRSNAMGWYRQAPGQERELVAAINNRDTSTYADSVKGRFTISRDNAKNTVYLQMNSLKPEDTAVFYCAARYQYYSTYGVTLDYWGQGSQVTVSS
polyreactivity (PSR sort gate): low polyreactivity

QVQLVESGGGLVQAGGSLRLSCAASGITFSLYAMGWYRQAPGKERELVAAISKSGGSTYYADSVKGRFTISRDNAKNTVYLQMNSLKPEDTAVYYCAADFVSKTPWHAQDDYWGQGTQVTVSS
polyreactivity (PSR sort gate): low polyreactivity

QVQHVESGRGFVKAGCSLRLSCASSGSIFVKNAMGRYRQAPGKERELVARITYSGGSTYYADSVKGRFTISRDNAKNTVYLQMNSVKPEDNAGYYCARTRKIAGYYYWGQGTQVTESS
polyreactivity (PSR sort gate): high polyreactivity

QVQLVESGGGLVQEGGSLRLSCAASGRTLYRNAMGWYRQAPGKERELVAAISRSGGRTSYADSVKGRFTISRDNANNTVYLQMNSLIPEDTAVYYCNDVASHEFDYWGEGTQVTVSS
polyreactivity (PSR sort gate): high polyreactivity

QVQLVESGGRLVQAGGSLRLSCAASGRIFVRYAMGWYRQAPGKERELVAAISTRGGSTYYADSVKGRFTISRDNAKNTVYLQMNSLNPEDTAVYYCAAGPRPRPTDYWGQGTQVTVSS
polyreactivity (PSR sort gate): high polyreactivity

QVQLVQSGGGLVQAGGSLRLSCAASGRIFRYYGMGWYRQAPGKERELVAAISWNSGSTYYADSVKGRFTISRDNAKNTVYLQMNSLKPEDTAVYYCNKVLFISGYVRNYGEYEYWGQGTQVTVSS
polyreactivity (PSR sort gate): high polyreactivity

QVQLVESGGGIVQAGGSLRLSCAASGRSFPNNAMGWYRPAPGKERELLAAISSGSSTDYADSVKGRFTISRDNAKNTVSLQMNSLKPEATAVYYCNAGDYTYPGSPWPGYAYDYWGLGTQVTVSS
polyreactivity (PSR sort gate): low polyreactivity

QVQLVESGGGLVQAGGSLRLSCAASGSTFFLYAMGWYRQAPGKERELVAAISTTGGSTNYADSVKGRFTISRDNAKNTVYLQMNSLKPEDTAVYYCAAGPSAQSIYDHWGQGTQVTVSS
polyreactivity (PSR sort gate): low polyreactivity

QVQLVESGGGLVQAGGSLSLSCAASGLTFVDNAMGWYRQAPWKERELVAAISYNGGSTYYADSVKGRFTISRDHAKTTVYLQMNSLKPEDTAVYSCAADIYVGRYGDMDFWGQGTQVTVSS
polyreactivity (PSR sort gate): low polyreactivity

QVPLVESGGGLVQAGGSLSLTCAASGRNLKYYDMGWYRQAPGKERELVAAISVSGTSTYYADSVKGRFTISRDNAKNTVYLQMNSLKPEDTAVYYCATATGRYSFDYWGQGTQVTLSS
polyreactivity (PSR sort gate): low polyreactivity

QVQLVESGGGLVQAGGSLRLSCAASGFTFTYYAMGWYRQAPGKERELVAVISSAGSTYYADSVKGRFTISRDNAKNTVYLQMNSLKPEDTAVYYCNAVGRYYSSGRYGHWGQGTQVTVSS
polyreactivity (PSR sort gate): high polyreactivity

QVQLVESGGGLVQAGASLRLCCAASGRILRRYAMGWYRQAPGKEWELVAAITARTGSTYYADSVKGRFTISRDTAKYTVYLQMNSLKPEDTAVYYCNAVNELTGGVIFNYWGQGTQVTVSS
polyreactivity (PSR sort gate): high polyreactivity

PVQLVESGGGLVQAGGSLRLICAASALTFPPYSMGWYRQAPAKERELVAAISRNAGNTYYADSVKGRFTISRDTAKNTVYLQMNSLKPEDTAVYYCAAKRGTQGMYYWGQGTQVTVSS
polyreactivity (PSR sort gate): high polyreactivity
